# Laboratory results as given in patent US11512141B2, “Fibrinogen-like protein 2 (FGL2) monoclonal antibodies and their use in cancer detection and treatment” (Board of Regents, The University of Texas System, priority 2017, dated 2022).
# B1: F48: anti-FGL2 monoclonal antibody of hybridoma clone F48; heavy chain SEQ ID NO:2, light chain SEQ ID NO:4 (antibody, V domains shown)
# VH: MGWSCIILFLVATATGVHSQVQLQQPGAELVKPGASVKLSCKASGYTFASYWMQWVKQRPGQGLEWIGEIDPSDSYTNYNQKFKGKATLTVDTSSNTAYMQLSSLTSEDSAVYYCARNGNYYGSTYDYWGQGTTLTVSS
# VL: MMSSAQFLGLLLLCFQGTRCDIQMTQTTSSLSASLGDRVTISCRASQDVSNYLNWYQQKPDGSVKLLIYYTSRLHSGVPSRFSGSGSGAHYSLTISNLEQEDIATYFCQQGNTLPPWTFGGGTKLEIK
# Legend:
# [1] = system: CD39 and CD73 regulatory T cell expression; experiment: Blocking of CD39 and CD73 regulatory T cell expression; type: cell-based
# Procedure: The present studies developed and characterized two anti-FGL2 monoclonal antibodies, F48 and F59. […] The effects of the anti-FGL2 antibodies were evaluated alone and in combination with other anti-cancer therapies such as anti-PDL1 antibody and chemotherapy on several mouse tumor models, including glioblastoma, melanoma, and lung cancer.
# [2] = system: GL261 glioblastoma cells; experiment: GL261 glioblastoma subcutaneous mouse model, M2 cell population in tumors; type: in vivo, mice; conditions: 100 μg antibody i.v. every 3 days, from 5-7 days after s.c. GL261 inoculation; vs IgG control
# Excerpt: FIGS. 1A-1C: (FIG. 1A) FGL2 expression in normal brain and GBM tissue shown by immunohistochemistry. Increased staining is observed in the glioma tissues. (FIG. 1B) Flow cytometry analysis for the expression of F4/80 and CD206 in glioblastoma tumor cells treated with IgG control or F48 anti-FGL2 antibody. (FIG. 1C) Percentage of M2 macrophages in the glioblastoma tumors treated with IgG control or F48 anti-FGL2 antibody.
# To screen for the anti-FGL2 antibody F48 function in mice, GL261 glioblastoma cells (1×10^5 in 30 μL) were injected into the back of mice by subcutaneous injection. The first treatment with antibody comprised 100 μg antibody by intravenous injection starting at about 5-7 days after tumor inoculation. The antibody treatment was repeated every 3 days and the mice were sacrificed at about 14-21 days.
# [3] = system: glioma GL261 tumors; experiment: Mouse glioma GL261 tumor model, alone or with temozolomide; type: in vivo; conditions: 20 mg/kg TMZ + 200 μg antibody
# Procedure: FIGS. 3A-3C: (FIG. 3A) Percent survival of glioma GL261 tumors treated with temozolomide (TMZ) in combination with IgG, F59, anti-PDL1, or F48. […] Western blot analysis of FLG2 expression with various antibodies. FGLS expression is reduced in tumors treated with anti-FGL2 antibodies. (FIG. 3C) Percent survival of mice inoculated with GL261 and treated with IgG control or F59.
# Next, the effect of the combination of temozolomide (TMZ) and anti-PDL1+anti-FGL2 antibody was determined on the mouse glioma GL261 tumor model progression in vivo.
# Percent survival of glioma GL261 tumors treated with temozolomide (TMZ) in combination with IgG, F59, anti-PDL1, or F48 (FIG. 3).
# [4] = system: OT-I T cells; experiment: Activation-induced OT-I T cell proliferation; type: cell-based; conditions: OT-I T cells activated with αCD3/CD28, with or without OVA peptide
# Excerpt: OT-I T cells were activated with αCD3/CD28 and then divided into different dishes to check the proliferation in the absence or presence of +OVA peptide (pep), absence or presence FGL2 mAb F48, and co-absence or presence of F48. Cell numbers were counted on different days.
# [5] = system: FGL2; experiment: Cross-species binding of anti-FGL2 antibodies
# Excerpt: In particular embodiments, the anti-FGL2 monoclonal antibodies provided herein are the F48 and F59 antibodies. […] Given that the combination of CD39 and CD73 degrade ATP, ADP, and AMP to adenosine, they can be viewed as “immunological switches” that shift ATP-driven pro-inflammatory immune cell activity toward an anti-inflammatory state mediated by adenosine. CD39 and CD73 both play a role in regulating the function of several immune cell types, including lymphocytes, neutrophils, monocytes/macrophages, dendritic cells, and endothelial cells (Antonioli et al., 2013).
molecule,measurement,setting,value
B1,block CD39 and CD73 regulatory T cell expression,[1],able to block CD39 and CD73 regulatory T cell expression
same,percentage of M2 cell population in the tumors,[2],suppression of the percentage of M2 cell population in the tumors
same,percent survival,[3],significantly improve glioma survival
same,activation-induced T cell growth (cell numbers),[4],promote activation-induced T cell growth
same,cross-species binding,[5],share the property of cross-species binding
